According to patent publication US20250296971A1, “GASTRIC INHIBITORY PEPTIDE RECEPTOR LIGANDS” (priority 2021, published 2025):
*1 amine or outer side, *2 acyl side, *3 side chain or, on linkers, in order; H or OH if unused. Bridges are numbered along the chain shown (N, C = ends). Primed or numbered codes have the meaning given here. [ ]: non-standard residue; d: D form. The star is where a group is joined. Ttds = 1,13-diamino-4,7,10-trioxatridecan-succinamic acid, NCCCOCCOCCOCCCNC(=O)CCC(=O)*; DOTA = O=C(O)CN1CCN(CC(=O)O)CCN(CC(=O)*)CCN(CC(=O)O)CC1; Trp(5-Cl) = N[C@@H](Cc1c[nH]c2ccc(Cl)cc12)C(=O)O; Pyridine(2,6-diCH2) = c1cc(C[*:1])nc(C[*:2])c1; Phe(2,4-Cl2) = N[C@@H](Cc1ccc(Cl)cc1Cl)C(=O)O; 2Lut″ = 2,6-lutidylidene linking two thiols; Phe(4-Cl) = N[C@@H](Cc1ccc(Cl)cc1)C(=O)O; Phe(2-Cl) = N[C@@H](Cc1ccccc1Cl)C(=O)O; mXylylene = c1cc(C[*:1])cc(C[*:2])c1; Hyp = O=C(O)[C@@H]1C[C@@H](O)CN1; Cysteamide = C(CS[*:3])N[*:1]; Thp = NC1(C(=O)O)CCOCC1; Aib = CC(C)(N)C(=O)O

Biological target: human Gastric Inhibitory Peptide Receptor (GIPR) (human) (UniProt P48546)
Test: FACS competition vs biotinylated GIP-057 on CHO-K1-hGIPR cells; category D: pIC50 <=6.0

human Gastric Inhibitory Peptide Receptor (GIPR) (human), sequence (P48546 22-466 limits assumed): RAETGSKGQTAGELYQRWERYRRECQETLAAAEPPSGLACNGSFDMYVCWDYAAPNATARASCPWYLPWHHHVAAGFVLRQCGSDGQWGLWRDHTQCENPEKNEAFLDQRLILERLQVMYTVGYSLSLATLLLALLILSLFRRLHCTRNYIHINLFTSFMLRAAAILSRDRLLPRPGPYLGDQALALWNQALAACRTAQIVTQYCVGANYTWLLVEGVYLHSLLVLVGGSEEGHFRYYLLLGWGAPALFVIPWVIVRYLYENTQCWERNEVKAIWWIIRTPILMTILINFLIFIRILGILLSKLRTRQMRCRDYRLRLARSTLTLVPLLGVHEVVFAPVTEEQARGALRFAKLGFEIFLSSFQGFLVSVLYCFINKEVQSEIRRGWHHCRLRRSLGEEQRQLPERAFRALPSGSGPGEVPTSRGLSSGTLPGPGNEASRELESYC

For {DOTA-Ttds}-[dL]DP[Trp(5-Cl)]WLCE[Aib]I[Cysteamide] (linker 7-11 via mXylylene) [DOTA-Ttds-leu-Asp-Pro-5Clw-Trp-Leu-[Cys(3MeBn)-Glu-Aib-Ile-AET]], the pIC50 was < 6 pic50.

In the case of {DOTA-Ttds}-[Trp(5-Cl)]PE[dL]DWCIL[Aib][Cysteamide] (linker 7-11 via mXylylene) [DOTA-Ttds-5Clw-Pro-Glu-leu-Asp-Trp-[Cys(3MeBn)-Ile-Leu-Aib-AET]], the pIC50 is reported as < 6 pic50.

With Ac-DW[Phe(2-Cl)][Hyp]E[dL]C[Thp]LIC-NH2 (linker 7-11 via 2Lut″) [Ac-Asp-Trp-Ocf-Hyp-Glu-leu-[Cys(2Lut)-Thp-Leu-Ile-Cys]-NH2] the pIC50 was < 6 pic50.

Ac-DW[Phe(4-Cl)][Hyp]E[dL]C[Thp]LIC-NH2 (linker 7-11 via 2Lut″) [Ac-Asp-Trp-Pcf-Hyp-Glu-leu-[Cys(2Lut)-Thp-Leu-Ile-Cys]-NH2] was tested, and the pIC50 was < 6 pic50.

With Ac-DW[Phe(2,4-Cl2)][Hyp]E[dL]C[Thp]LIC-NH2 (linker 7-11 via Pyridine(2,6-diCH2)) [Ac-Asp-Trp-Egm-Hyp-Glu-leu-[Cys(2Lut)-Thp-Leu-Ile-Cys]-NH2] the pIC50 was < 6 pic50.

B1: Ac-Asp-Trp-5Clw-Hyp-Glu-leu-[Cys(2Lut)-Thp-Leu-Arg-Cys]-NH2 (peptide)
peptide: Ac-DW[Trp(5-Cl)][Hyp]E[dL]C[Thp]LRC-NH2
modifications: linker 7-11 via Pyridine(2,6-diCH2)
SMILES: CC(=O)N[C@@H](CC(=O)O)C(=O)N[C@@H](Cc1c[nH]c2ccccc12)C(=O)N[C@@H](Cc1c[nH]c2ccc(Cl)cc12)C(=O)N1C[C@H](O)C[C@H]1C(=O)N[C@@H](CCC(=O)O)C(=O)N[C@H](CC(C)C)C(=O)N[C@H]1CSCc2cccc(n2)CSC[C@@H](C(N)=O)NC(=O)[C@H](CCCNC(=N)N)NC(=O)[C@H](CC(C)C)NC(=O)C2(CCOCC2)NC1=O
In the case of B1, the pIC50 is reported as < 6 pic50.

B2: Ac-Asp-Trp-5Clw-Hyp-Glu-leu-[Cys(2Lut)-Thp-Leu-Glu-Cys]-NH2 (peptide)
peptide: Ac-DW[Trp(5-Cl)][Hyp]E[dL]C[Thp]LEC-NH2
modifications: linker 7-11 via Pyridine(2,6-diCH2)
SMILES: CC(=O)N[C@@H](CC(=O)O)C(=O)N[C@@H](Cc1c[nH]c2ccccc12)C(=O)N[C@@H](Cc1c[nH]c2ccc(Cl)cc12)C(=O)N1C[C@H](O)C[C@H]1C(=O)N[C@@H](CCC(=O)O)C(=O)N[C@H](CC(C)C)C(=O)N[C@H]1CSCc2cccc(n2)CSC[C@@H](C(N)=O)NC(=O)[C@H](CCC(=O)O)NC(=O)[C@H](CC(C)C)NC(=O)C2(CCOCC2)NC1=O
With B2 the pIC50 was < 6 pic50.

B3: Ac-Asp-Trp-5Clw-Hyp-Glu-leu-[Cys(2Lut)-Thp-Leu-Trp-Cys]-NH2 (peptide)
peptide: Ac-DW[Trp(5-Cl)][Hyp]E[dL]C[Thp]LWC-NH2
modifications: linker 7-11 via Pyridine(2,6-diCH2)
SMILES: CC(=O)N[C@@H](CC(=O)O)C(=O)N[C@@H](Cc1c[nH]c2ccccc12)C(=O)N[C@@H](Cc1c[nH]c2ccc(Cl)cc12)C(=O)N1C[C@H](O)C[C@H]1C(=O)N[C@@H](CCC(=O)O)C(=O)N[C@H](CC(C)C)C(=O)N[C@H]1CSCc2cccc(n2)CSC[C@@H](C(N)=O)NC(=O)[C@H](Cc2c[nH]c3ccccc23)NC(=O)[C@H](CC(C)C)NC(=O)C2(CCOCC2)NC1=O
For B3, the pIC50 was < 6 pic50.
